Results published in paper PMC3569440, “Recombinant Production of Human Aquaporin-1 to an Exceptional High Membrane Density in Saccharomyces cerevisiae” (PLoS ONE, 2013).
Several values for one entry are separate records, joined by “and”; a condition that tells them apart may be missing. Equal entries are not always repeated.

Target: the molecule itself
Experiment: SEC; fluorescence-detection size-exclusion chromatography (FSEC); crude membranes (2 mg/ml) solubilized in CYMAL-5 or DDM at a detergent:protein ratio of 3, 50 mM phosphate pH 7.5, 10 mM imidazole, 500 mM NaCl, 4°C; Superose 12 10/300 GL; GFP fluorescence of fractions

B1: human Aquaporin-1 C-terminally tagged with yeast enhanced GFP and eight histidines (hAQP1-GFP-8His) (natural protein, UniProt P29972 1-269, looked up)
chain: MASEFKKKLFWRAVVAEFLATTLFVFISIGSALGFKYPVGNNQTAVQDNVKVSLAFGLSIATLAQSVGHISGAHLNPAVTLGLLLSCQISIFRALMYIIAQCVGAIVATAILSGITSSLTGNSLGRNDLADGVNSGQGLGIEIIGTLQLVLCVLATTDRRRRDLGGSAPLAIGLSVALGHLLAIDYTGCGINPARSFGSAVITHNFSNHWIFWVGPFIGGALAVLIYDFILAPRSSDLTDRVKVWTSGQVEEYDLDADDINSRVEMKPK
notes: human Aquaporin-1 (hAQP1), 269 amino acids; coding part of the cDNA without a translational stop codon, fused in frame to yeast enhanced GFP and eight histidines; not N-glycosylated in yeast; Order on the chain: hAQP1, yEGFP, 8 His; also called hAQP1-GFP-His8; Aquaporin-1-GFP; source: S. cerevisiae PAP1500 (plasmid pPAP8230), crude membranes solubilized in CYMAL-5 or DDM; also purified (CYMAL-5, …)
- stoichiometry N: 4 and > 4
